The values that follow come from paper PMC546129.

In test [1] the target is Gal4-DBD–Vnd, construct A1 (amino acids 3–717) (Drosophila) (UniProt P22808). Put plainly: two-hybrid.
Test [2] deals with Gal4-DBD–Vnd, construct A2 (amino acids 3–613) (Drosophila) (UniProt P22808). The test can be described thus: two-hybrid.

On to “VP16–Dichaete (pACT-Dichaete) (natural protein)”, for which the fold reduction of repression (two-hybrid reporter) in test [1] came to 6 fold. In addition, the fold alleviation of repression (two-hybrid reporter) in test [2] was in the range of 3 to 3.5 fold.
